The values that follow come from US20220010008A1 (SHANGHAI PHARMAEXPLORER, published 2022).

Assay [1] addresses recombinant human IL-5 protein with His tag (human, UniProt P05113 20-134, limits assumed, biotin-labeled in the ELISA and in the receptor blocking assay (site not stated)). Briefly: cell-based or functional assay.
Assay [2] addresses recombinant human IL-5 protein (human, UniProt P05113 20-134, limits assumed). The assay is described as follows: cell-based or functional assay.
Assay [3] has as its target T1, recombinant monkey IL-5 (monkey (cynomolgus macaques)). Briefly: ELISA, monkey IL-5, Ab 0.0043 nM. Here is the method:
(§1) The titer of antibody reacting with human IL-5 protein and the cross reaction with mouse and monkey IL-5 protein were detected and analyzed by enzyme-linked immunosorbent assay (ELISA). Streptavidin was diluted with PBS to a final concentration of 1.0 μg/ml, and then added to a 96-well enzyme-labeled plate as 100 microliters per well. The plate was incubated at 4° C. overnight. On the second day, the plate was washed twice with washing solution (PBS+0.01% Tween20). The blocking solution (PBS+0.05% Tween20+2% BSA) was added for blocking at 37° C. for 1-2 hours. Then the blocking solution was discarded. The biotin-labeled human IL-5 was diluted with sample diluent (PBS+0.05% Tween20+0.2% BSA) to 0.5 μg/ml, and added to an enzyme-labeled plate at 50-100 microliters per well, and incubated at 37° C. for 1 hour. The plate was washed with plate washing solution (PBS+0.05% Tween 20) for 2-3 times. 50-100 microliters of antibody samples to be tested were added to each well, and incubated at 37° C. for 1 hour. Then the plate was washed with plate washing solution (PBS+0.05% Tween20) for 2-3 times. […] The value of O.D. 450 nm was read by ELISA plate reader (SpectraMax M5e, Molecular Device).
(§2) The titer of chimeric antibody reacting with human IL-5 protein and the cross reaction with mouse and monkey IL-5 protein were detected and analyzed by enzyme-linked immunosorbent assay (ELISA). […]
On the technique in general: An ELISA detects its analyte on a solid surface through an enzyme-linked reagent.

Assay [4] has as its target T1, recombinant monkey IL-5. The assay is described as follows: ELISA, monkey IL-5, Ab 0.0002 nM. Here is the method:
as §1, §2

Assay [5] has as its target T2, mouse IL-5 (mouse, UniProt P04401 21-133).
T2 construct: Source and construct of the mouse IL-5 are not described; also called mouse IL-5 protein
T2 sequence (looked up): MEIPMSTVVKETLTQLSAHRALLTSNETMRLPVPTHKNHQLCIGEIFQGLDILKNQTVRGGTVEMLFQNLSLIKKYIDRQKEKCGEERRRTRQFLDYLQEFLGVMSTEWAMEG
Briefly: ELISA on mouse IL-5; antibody 0.0002 nM. Here is the method:
The titer of antibody reacting with human IL-5 protein and the cross reaction with mouse and monkey IL-5 protein were detected and analyzed by enzyme-linked immunosorbent assay (ELISA). Streptavidin was diluted with PBS to a final concentration of 1.0 μg/ml, and then added to a 96-well enzyme-labeled plate as 100 microliters per well. The plate was incubated at 4° C. overnight. On the second day, the plate was washed twice with washing solution (PBS+0.01% Tween20). The blocking solution (PBS+0.05% Tween20+2% BSA) was added for blocking at 37° C. for 1-2 hours. Then the blocking solution was discarded. The biotin-labeled human IL-5 was diluted with sample diluent (PBS+0.05% Tween20+0.2% BSA) to 0.5 μg/ml, and added to an enzyme-labeled plate at 50-100 microliters per well, and incubated at 37° C. for 1 hour. The plate was washed with plate washing solution (PBS+0.05% Tween 20) for 2-3 times. 50-100 microliters of antibody samples to be tested were added to each well, and incubated at 37° C. for 1 hour. Then the plate was washed with plate washing solution (PBS+0.05% Tween20) for 2-3 times. The horseradish peroxidase labeled secondary antibody against human or mouse IgG was added, and reacted at 37° C. for 1 hour. The plate was washed with plate washing solution (PBS+0.05% Tween 20) for 2-3 times. […] The value of O.D. 450 nm was read by ELISA plate reader (SpectraMax M5e, Molecular Device).

The target of assay [6] is T3, mouse IL-5 (mouse, UniProt P04401 21-133).
T3 sequence (looked up): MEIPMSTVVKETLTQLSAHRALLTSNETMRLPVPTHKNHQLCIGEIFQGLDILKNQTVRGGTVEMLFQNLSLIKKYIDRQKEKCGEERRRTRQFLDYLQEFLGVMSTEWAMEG
The assay is described as follows: ELISA, mouse IL-5, Ab 0.0002 nM. The protocol:
as §1, §2

The target in assay [7] is T3, mouse IL-5. Briefly: ELISA, mouse IL-5, Ab 0.0043 nM. Here is the method:
as §1, §2

B1: 147D7H2 (as tested in Example 9, format not stated) (antibody, V domains shown)
VH: EVQLQQSGAELVKPGASVKLSCTASGFNIKDYFIHWVKQRTEQGLEWIGRIDTEDGETKYAPKFQGKATITIDTSSNTAYLYFSSLTSEDTAMYYCARYGNYVAMDYWGQGTSVTVSS
VL: QIVLTQSPALMSASPGEKVTMTCSASSSVSYMFWYQQKPSSSPKPWIYLTSKLASGVPARFSGSGSGTSYSLTISSVEAEDAATYYCQQWNSNPYTFGGGTKLEIK
In the case of B1, the “TF1 (IC50), TF1 proliferation induced by IL-5” value (shortened to “TF1 (IC50)”) in assay [1] is around 1 pM.

B2: 151G3B11 (as tested in Example 9, format not stated) (antibody, V domains shown)
VH: EVHLQQSGAELVKPGASVKLSCTASGFNIKDYYMHWVKQRTEQGLEWIGRIDPEDGETKYAPKFQGQATITADTSSNTANLQLSSLTSEDTAVYYCARYGNFPDYWGPGTTLTVSS
VL: QIVLTQSPALMSASPGEKVTMTCSASSSVSYMYWYQQKPRSSPKPWIYLTSKLASGVPARFSGSGSGTSYSLTISSMEAEDAATYYCQQWNSNPYTFGGGTKLEIK
Regarding B2, in assay [1], the “TF1 (IC50)” value was around 1 pM.

B3: 147D7H2 (as tested in Example 9; murine or chimeric form not stated) (antibody, V domains shown)
VH: EVQLQQSGAELVKPGASVKLSCTASGFNIKDYFIHWVKQRTEQGLEWIGRIDTEDGETKYAPKFQGKATITIDTSSNTAYLYFSSLTSEDTAMYYCARYGNYVAMDYWGQGTSVTVSS
VL: QIVLTQSPALMSASPGEKVTMTCSASSSVSYMFWYQQKPSSSPKPWIYLTSKLASGVPARFSGSGSGTSYSLTISSVEAEDAATYYCQQWNSNPYTFGGGTKLEIK
Turning to B3, the “TF1 (IC50, nM)” value in assay [2] stood at 0.002 nM.

B4: 147D7H2 mouse-human chimeric antibody (antibody, V domains shown)
VH: EVQLQQSGAELVKPGASVKLSCTASGFNIKDYFIHWVKQRTEQGLEWIGRIDTEDGETKYAPKFQGKATITIDTSSNTAYLYFSSLTSEDTAMYYCARYGNYVAMDYWGQGTSVTVSS
VL: QIVLTQSPALMSASPGEKVTMTCSASSSVSYMFWYQQKPSSSPKPWIYLTSKLASGVPARFSGSGSGTSYSLTISSVEAEDAATYYCQQWNSNPYTFGGGTKLEIK
As to B4, the OD450 nm with recombinant monkey IL-5 [3] is 0.092 OD450 nm; with recombinant monkey IL-5 [4], 0.093 OD450 nm.

B5: 69F2F3 (murine hybridoma antibody) (antibody, V domains shown)
VH: QVQLKQSGPGLVQPSQSLSITCTVSGFSLSNYGVHWVRQSPGKGLEWLGVIWSGGSTDYNAAFKSRLSITKDNSKSQVVFRMNSLQTDDTATYYCARNKDFLDYWGQGTKFTVSS
VL: DIVMTQSPSSLTVTAGEKVTMTCKSSQGLLNSGNQKNYLTWYQQKPGQPPKLLIYWASTRESGVPDRFTGSGSGTDFTLTISSVQAEDLAVYYCQNDYHFPLTFGAGTKLELK
notes: Mouse monoclonal antibody from hybridoma, purified on Protein G; also called lead antibody; antibody number 3
Turning to B5, the OD450 nm in the assay with mouse IL-5 [5] stood at 0.049.

B6: 102A2E11B6 (as tested in Example 9, format not stated) (antibody, V domains shown)
VH: QVQLRQSGPGLVQPSQSLSITCTVSGFSLTSYGVHWVRQSPGKGLEWLGVIWSGGSTDYNAVFMSRLSISKDSSKSQVFFKMNSLQTDDTAIYYCARNRYVLDYWGQGTSVTVSS
VL: DIVMTQSPSSLSVSAGERVTMRCKSSQSLLTSGDQKNHLAWYQQKPGQPPKLLIYGASTRESGVPDRFTGSGSGTDFTLTITSVQAEDLAVYYCQNDHSFPLTFGAGTKLELK
For B6, the “TF1 (IC50)” value in assay [1] is around 1 pM.

B7: 102A2E11B6 mouse-human chimeric antibody (antibody, V domains shown)
VH: QVQLRQSGPGLVQPSQSLSITCTVSGFSLTSYGVHWVRQSPGKGLEWLGVIWSGGSTDYNAVFMSRLSISKDSSKSQVFFKMNSLQTDDTAIYYCARNRYVLDYWGQGTSVTVSS
VL: DIVMTQSPSSLSVSAGERVTMRCKSSQSLLTSGDQKNHLAWYQQKPGQPPKLLIYGASTRESGVPDRFTGSGSGTDFTLTITSVQAEDLAVYYCQNDHSFPLTFGAGTKLELK
Turning to B7, the OD450 nm was 0.046 OD450 nm in the assay with mouse IL-5 [6] and 0.069 OD450 nm in the assay with mouse IL-5 [7].
